Measurements as given in patent EP4647441A1 (dated 2025).
One block for each binder: values may come before it.

Assays:
[1] = molecular target: T1, KRAS G12A peptide on HLA-A*11:01 (human); assay: killing
T1 peptide: VVVGAAGVGK

[2] = molecular target: T2, KRAS G12C peptide on HLA-A*11:01 (human); assay: killing
T2 peptide: VVVGACGVGK

[3] = molecular target: T3, KRAS G12S peptide on HLA-A*11:01 (human); assay: killing
T3 peptide: VVVGASGVGK

[4] = molecular target: T4, KRAS G12V peptide on HLA-A*11:01 (human); assay: CD69 by flow cytometry; TCR1-transduced Jurkat cells with K562-A*11:01 loaded with peptide at 10^-11 to 10^-6 M; full-length, on cells
T4 peptide: VVVGAVGVGK

[5] = molecular target: T5, KRAS G12D peptide on HLA-A*11:01 (human); assay: as above
T5 peptide: VVVGADGVGK

[6] = molecular target: HLA-A*11:01 loaded with KRAS-G12V peptide … (human); assay: cell-based or functional assay
[7] = molecular target: HLA-A*11:01 loaded with KRAS-G12D peptide … (human); assay: cell-based or functional assay

EC50 of peptide [4]: ~45 nM | EC50 of peptide [5]: ~77 nM
B1: TCR1 (TCR, V domains shown)
Valpha: KQEVTQIPAALSVPEGENLVLNCSFTDSAIYNLQWFRQDPGKGLTSLLLIQSSQREQTSGRLNASLDKSSGRSTLYIAASQPGDSATYLCAVNSYSGAGSYQLTFGKGTKLSVIP
Vbeta: EPEVTQTPSHQVTQMGQEVILRCVPISNHLYFYWYRQILGQKVEFLVSFYNNEISEKSEIFDDQFSVERPDGSNFTLKIRSTKLEDSAMYFCASRGGGEQYFGPGTRLTVT
binding result [1]: recognises | binding result [2]: recognises | binding result [3]: recognises

EC50 of CD69 expression of TCR-transduced cells after co-incubation with target cells loaded with graded peptide concentrations [6]: 45 nM | EC50 of CD69 expression of TCR-transduced cells after co-incubation with target cells loaded with graded peptide concentrations [7]: 77 nM
B2: HLA-A*11:01/KRAS G12V-specific TCR1 (TCR)
TCR alpha: KQEVTQIPAALSVPEGENLVLNCSFTDSAIYNLQWFRQDPGKGLTSLLLIQSSQREQTSGRLNASLDKSSGRSTLYIAASQPGDSATYLCAVNSYSGAGSYQLTFGKGTKLSVIPNIQNPDPAVYQLRDSKSSDKSVCLFTDFDSQTNVSQSKDSDVYITDKTVLDMRSMDFKSNSAVAWSNKSDFACANAFNNSIIPEDTFFPSPESSCDVKLVEKSFETDTNLNFQNLSVIGFRILLLKVAGFNLLMTLRLWSS
TCR beta: EPEVTQTPSHQVTQMGQEVILRCVPISNHLYFYWYRQILGQKVEFLVSFYNNEISEKSEIFDDQFSVERPDGSNFTLKIRSTKLEDSAMYFCASRGGGEQYFGPGTRLTVTEDLKNVFPPEVAVFEPSEAEISHTQKATLVCLATGFYPDHVELSWWVNGKEVHSGVSTDPQPLKEQPALNDSRYCLSSRLRVSATFWQNPRNHFRCQVQFYGLSENDEWTQDRAKPVTQIVSAEAWGRADCGFTSESYQQGVLSATILYEILLGKATLYAVLVSALVLMAMVKRKDSRG
